Assay results: patent publication US20220411483A1 (Chugai, published 2022)
Substitutions are numbered along the chain they refer to. Each block holds one binder with its values, some of them ahead of it.

Columns and labels:
[1] = biological target: T1, FcγRIIa R type extracellular domain with C-terminal His tag (human, UniProt P12318 34-217); assay: SPR (Biacore), FcgR as analyte
T1 construct: extracellular domain; also called FcgRIIaR
T1 sequence (looked up): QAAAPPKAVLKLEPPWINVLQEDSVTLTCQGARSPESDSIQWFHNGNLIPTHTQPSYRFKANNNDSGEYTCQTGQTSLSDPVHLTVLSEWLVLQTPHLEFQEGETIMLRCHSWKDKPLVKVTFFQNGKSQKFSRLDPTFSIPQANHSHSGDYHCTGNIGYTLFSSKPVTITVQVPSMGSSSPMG

[2] = biological target: T2, FcγRIIa R type extracellular domain with C-terminal His tag (human, UniProt P12318 34-217); assay: SPR; KD of IL6R-B3/IL6R-L divided by KD of variant
T2 construct: extracellular domain; also called FcgRIIaR; not shown: His tag at the C terminus
T2 sequence (looked up): T1 sequence (looked up)

[3] = biological target: T3, FcγRIIb extracellular domain with C-terminal His tag (human, UniProt P31994 43-217); assay: SPR; KD of IL6R-B3/IL6R-L divided by KD of variant
T3 construct: extracellular domain; also called FcgRIIb; not shown: His tag at the C terminus
T3 sequence (looked up): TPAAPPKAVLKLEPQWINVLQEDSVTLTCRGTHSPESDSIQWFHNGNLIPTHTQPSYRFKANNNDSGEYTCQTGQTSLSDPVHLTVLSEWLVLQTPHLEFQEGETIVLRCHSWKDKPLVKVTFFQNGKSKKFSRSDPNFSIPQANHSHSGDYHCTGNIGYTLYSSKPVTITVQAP

[4] = biological target: T2, FcγRIIa R type extracellular domain …; assay: SPR, antibody captured, FcgR analyte
[5] = biological target: T3, FcγRIIb extracellular domain with …; assay: SPR, antibody captured, FcgR analyte
[6] = biological target: T4, FcγRIIa H type extracellular domain with C-terminal His tag (human, UniProt P12318 34-217); assay: SPR, antibody captured, FcgR analyte
T4 construct: extracellular domain; also called FcgRIIaH; not shown: His tag at the C terminus
T4 sequence (looked up): T1 sequence (looked up) with R134H

[7] = biological target: T5, FcγRIa extracellular domain with C-terminal His tag (human, UniProt P12314 16-292); assay: SPR, antibody captured, FcgR analyte
T5 construct: also called FcgRIa; CD64; not shown: His tag at the C terminus
T5 sequence (P12314 16-292): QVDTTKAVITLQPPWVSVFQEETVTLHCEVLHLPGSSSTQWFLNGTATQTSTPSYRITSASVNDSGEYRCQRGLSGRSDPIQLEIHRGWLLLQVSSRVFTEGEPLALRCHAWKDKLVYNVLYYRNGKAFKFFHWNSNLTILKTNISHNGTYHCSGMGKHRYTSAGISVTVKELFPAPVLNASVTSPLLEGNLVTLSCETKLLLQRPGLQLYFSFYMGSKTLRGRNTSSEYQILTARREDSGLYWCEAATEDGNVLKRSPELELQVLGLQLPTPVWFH

B2: IL6R-BP184/IL6R-L (antibody, human IgG1, kappa, name in EU numbering)
heavy: QVQLQESGPGLVKPSETLSLTCAVSGHSISHDHAWSWVRQPPGEGLEWIGFISYSGITNYNPSLQGRVTISRDNSKNTLYLQMNSLRAEDTAVYYCARSLARTTAMDYWGEGTLVTVSSASTKGPSVFPLAPSSKSTSGGTAALGCLVKDYFPEPVTVSWNSGALTSGVHTFPAVLQSSGLYSLSSVVTVPSSSLGTQTYICNVNHKPSNTKVDKKVEPKSCDKTHTCPPCPAPDLLGGDSVFLFPPKPKDTLMISRTPEVTCVVVDVSHEDGEVKFNWYVDGVEVHNAKTKPREEQYNSTYRVVSVLTVLHQDWLNGKEYKCKVSNKALPKPIEKTISKAKGQPREPQVYTLPPSRDELTKNQVSLTCLVKGFYPSDIAVEWESNGQPENNYKTTPPVLDSDGSFFLYSKLTVDKSRWQQGNVFSCSVMHEALHNHYTQESLSLSP
light: not shown
notes: IgG1; alterations on IL6R-B3, EU numbering
Kd [1]: 2300 nM

B3: IL6R-BP540/IL6R-L (antibody, human IgG1, kappa, name in EU numbering)
heavy: B2 heavy with D235E, G239D, V266I, H270E, E274P, Y298D, K332R
light: not shown
notes: human IgG1
Relative FcgRIIaR-binding Activity [2]: 5.1
Relative FcgRIIb-binding Activity [3]: 539
Kd [4]: 210 nM
Kd [5]: 5.7 nM
Kd [6]: 4600 nM
Kd [7]: 96 nM

B5: IL6R-BP223/IL6R-L (antibody, human IgG1, kappa, name in EU numbering)
heavy: B2 heavy with D235E, L236Y, G239D, H270D, K328A, K332R
light: not shown
notes: as for B2
Kd [1]: 600 nM

B12: IL6R-BP085/IL6R-L (antibody, human IgG1, kappa, name in EU numbering)
heavy: B2 heavy with D235E, G239D, G273P
light: not shown
notes: as for B2
Kd [1]: 4200 nM

B13: IL6R-BP211/IL6R-L (antibody, human IgG1, kappa, name in EU numbering)
heavy: B2 heavy with H270D, K328A, K332R
light: not shown
notes: as for B2
Kd [1]: 4100 nM

B14: IL6R-BP503/IL6R-L (antibody, human IgG1, kappa, name in EU numbering)
heavy: B2 heavy with G239D, V266I, S269A, H270E, Y298D, A329G, K332R, P398M
light: not shown
notes: human IgG1
Relative FcgRIIaR-binding Activity [2]: 19
Relative FcgRIIb-binding Activity [3]: 1810
Kd [4]: 57 nM
Kd [5]: 1.7 nM
Kd [6]: 860 nM
Kd [7]: 1.2 nM

B15: IL6R-BP210/IL6R-L (antibody, human IgG1, kappa, name in EU numbering)
heavy: B2 heavy with D235E, G239D, H270D, K332R
light: not shown
notes: as for B2
Kd [1]: 1000 nM

Now from value to binder:

Kd [1]: 5000 nM
B1: IL6R-2B253/IL6R-L (antibody, human IgG1, kappa, name in EU numbering)
heavy: B2 heavy with G273P, V325M, K332A
light: not shown
notes: as for B2

Kd [1]: 850 nM
B4: IL6R-BP208/IL6R-L (antibody, human IgG1, kappa, name in EU numbering)
heavy: B2 heavy with G239D, H270D, K332R
light: not shown
notes: as for B2

Relative FcgRIIaR-binding Activity [2]: 6.1
Relative FcgRIIb-binding Activity [3]: 888
Kd [4]: 180 nM
Kd [5]: 3.5 nM
Kd [6]: 4300 nM
Kd [7]: 6 nM
B6: IL6R-BP511/IL6R-L (antibody, human IgG1, kappa, name in EU numbering)
heavy: B2 heavy with D235E, G239D, V266I, S269A, H270E, E274P, Y298D, K332R
light: not shown
notes: human IgG1

Relative FcgRIIaR-binding Activity [2]: 9
Relative FcgRIIb-binding Activity [3]: 754
Kd [4]: 120 nM
Kd [5]: 4.1 nM
Kd [6]: 2600 nM
Kd [7]: 7.7 nM
B7: IL6R-BP533/IL6R-L (antibody, human IgG1, kappa, name in EU numbering)
heavy: B2 heavy with G239D, V266I, S269G, H270E, Y298D, K332R, P398L
light: not shown
notes: human IgG1

Relative FcgRIIaR-binding Activity [2]: 3.6
Relative FcgRIIb-binding Activity [3]: 369
Kd [4]: 300 nM
Kd [5]: 8.4 nM
Kd [6]: 5800 nM
Kd [7]: 43 nM
B8: IL6R-BP556/IL6R-L (antibody, human IgG1, kappa, name in EU numbering)
heavy: B2 heavy with D235E, G239D, V266I, S269G, H270E, Y298D, K332R
light: not shown
notes: human IgG1

Kd [1]: 1000 nM
B9: IL6R-BP188/IL6R-L (antibody, human IgG1, kappa, name in EU numbering)
heavy: B2 heavy with G239D, H270D
light: not shown
notes: as for B2

Relative FcgRIIaR-binding Activity [2]: 4.7
Relative FcgRIIb-binding Activity [3]: 563
Kd [4]: 230 nM
Kd [5]: 5.5 nM
Kd [6]: 4700 nM
Kd [7]: 2.4 nM
B10: IL6R-BP565/IL6R-L (antibody, human IgG1, kappa, name in EU numbering)
heavy: B2 heavy with G239D, S269A, H270E, Y298D, K332R
light: not shown
notes: human IgG1

Kd [1]: 960 nM
B11: IL6R-BP186/IL6R-L (antibody, human IgG1, kappa, name in EU numbering)
heavy: B2 heavy with L236Y, G239D, Y298D, K328A
light: not shown
notes: as for B2

Relative FcgRIIaR-binding Activity [2]: 3.2
Relative FcgRIIb-binding Activity [3]: 405
Kd [4]: 340 nM
Kd [5]: 7.6 nM
Kd [6]: 5000 nM
Kd [7]: 25 nM
B16: IL6R-BP550/IL6R-L (antibody, human IgG1, kappa, name in EU numbering)
heavy: B2 heavy with D235E, G239D, V266I, S269G, H270E, E274D, Y298D, K332R
light: not shown
notes: human IgG1
